B1: GST-SKAP [not stated] / GFP-Kif2b [human] (parent)
chain 1: MAAPEAPPLDRVFRTTWLSTECDSHPLPPSYRKFLFETQAADLAGGTTVAAGNLLNESEKDCGQDRRAPGVQPCRLVTMTSVVKTVYSLQPPSALSGGQPADTQTRATSKSLLPVRSKEVDVSKQLHSGGPENDVTKITKLRRENGQMKATDTATRRNVRKGYKPLSKQKSEEELKDKNQLLEAVNKQLHQKLTETQGELKDLTQKVELLEKFRDNCLAILESKGLDPALGSETLASRQESTTDHMDSMLLLETLQEELKLFNETAKKQMEELQALKVKLEMKEERVRFLEQQTLCNNQVNDLTTALKEMEQLLEM
chain 2: MASQFCLPESPCLSPLKPLKPHFGDIQEGIYVAIQRSDKRIHLAVVTEINRENYWVTVEWVEKAVKKGKKIDLETILLLNPALDSAEHPMPPPPLSPLALAPSSAIRDQRTATKWVAMIPQKNQTASGDSLDVRVPSKPCLMKQKKSPCLWEIQKLQEQREKRRRLQQEIRARRALDVNTRNPNYEIMHMIEEYRRHLDSSKISVLEPPQEHRICVCVRKRPLNQRETTLKDLDIITVPSDNVVMVHESKQKVDLTRYLQNQTFCFDHAFDDKASNELVYQFTAQPLVESIFRKGMATCFAYGQTGSGKTYTMGGDFSGTAQDCSKGIYALVAQDVFLLLRNSTYEKLDLKVYGTFFEIYGGKVYDLLNWKKKLQVLEDGNQQIQVVGLQEKEVCCVEEVLNLVEIGNSCRTSRQTPVNAHSSRSHAVFQIILKSGRIMHGKFSLVDLAGNERGADTTKASRKRQLEGAEINKSLLALKECILALGQNKPHTPFRASKLTLVLRDSFIGQNSSTCMIATISPGMTSCENTLNTLRYANRVKKLNVDVRPYHRGHYPIGHEAPRMLKSHIGNSEMSLQRDEFIKIPYVQSEEQKEIEEVETLPTLLGKDTTISGKGSSQWLENIQERAGGVHHDIDFCIARSLSILEQKIDALTEIQKKLKLLLADLHVKSKVE

Results on two variants are retold here after publication PMC5159797.

The assay covers variants of B1. The assay can be described thus: GST pull-down, anti-GFP blot quantified. As to conditions: with GFP-Kif2b [human]; GFP-Kif2b from HEK293T cell lysates; parent: 1; read off a plot.
In the case of chain 1 S232A S237A T294A, the ratio to parent came out at 0.7. With chain 1 S232E S237E T294E, the ratio to parent was 1.2.
